Assay results as given in article PMC7033585.

Tests used:
[1] = target: YeeF-CT^H581A, point variant of the C-terminal toxic domain of YeeF (Bacillus subtilis subsp. spizizenii str. W23) (UniProt O31506); test: AUC; sedimentation velocity of mixtures: YeeF-CT fixed, increasing YezG, incubated at 4°C for 1 h beforehand; 20 mM HEPES pH 7.5, 150 mM NaCl; 25°C
[2] = target: YeeF-CT^H581A, point variant of the C-terminal toxic domain of YeeF (Bacillus subtilis subsp. spizizenii str. W23) (UniProt O31506); test: ITC; YeeF-CT^(M) 10 μM in the cell, YezG 300 μM in the syringe; 25°C; 20 mM HEPES pH 7.5, 150 mM NaCl; two binding site model
[3] = target: CdiI536 (Escherichia coli) (UniProt Q0T964); details: cited from earlier work
[4] = target: YeeF-CT^H581A, point variant of the C-terminal toxic domain of YeeF (Bacillus subtilis subsp. spizizenii str. W23) (UniProt O31506); test: AUC; sedimentation velocity of each protein alone at 8, 16 and 32 μM; 20 mM HEPES pH 7.5, 150 mM NaCl; 40,000 rpm, 25°C; c(s) fit with SEDFIT
[5] = target: YeeF-CT^H581A, C-terminal toxic domain of YeeF (Ile527 to Gly669) with the point mutation H581A (Bacillus subtilis subsp. spizizenii str. W23) (UniProt O31506); test: as above

## YezG immunity protein (from UniProt C0H3X4 1-151) (natural protein)
[1]
  stoichiometry N (YezG monomers per YeeF-CT dimer): 2
[2]
  KD1 (first site of the two-site fit): 29.4 nM
  KD2 (second site of the two-site fit): 91.7 nM

## CdiA-CT536 CT (from UniProt Q0T963)
[3]
  Kd: 26.4 nM

## YeeF-CT^H581A, point variant of the C-terminal toxic domain of YeeF (from UniProt O31506 527-669) (domain or fragment)
[4]
  stoichiometry N: 2

## YeeF-CT^H581A, C-terminal toxic domain of YeeF (Ile527 to Gly669) with the point mutation H581A (from UniProt O31506 527-669) (domain or fragment)
[5]
  stoichiometry N: 2
